The test system of test [1] is olivetolic acid. Put plainly: GPS-APT fusions, OA feed in vivo assay (Example 11). The class given is cell-based, Yarrowia. The conditions noted are these: for CBGA / FCBGA: olivetolic acid feed as in Example 8, 48 h quench, strain sCL-SE-0128; for CBGA/FCBG: olivetolic acid feed, 48 h quench, product ratio. How it is done:
(§1) As described below, plasmids pCL-SE-0406, pCL-SE-0664, pCL-SE-0663, pCL-SE-0662, pCL-SE-0380 (MPT4), pCL-SE-0337.MPT21, pCL-SE-0337.MPT26, and pCL-SE-0337.MPT31 were transformed into strain sCL-SE-0128. Multiple colonies per transformation were precultured for 48 h in YNB containing glucose (2%), casamino acids (0.5%), and MES (100 mM pH 6.5). Pre-culture was used to inoculate assay medium comprised of YNB containing glucose (2%), casamino acids (0.5%), MES (100 mM pH 6.5), and olivetolic acid (2 mM). Cultures were quenched with equal volume of ethanol after 48 h total growth and assayed for CBGA and FCBGA. Averages and standard deviations were calculated from replicates.
Soluble prenyl transferase APT73.77 was fused with GPS1.1 at the N- or C-terminus with different linkers creating the plasmids shown in Table 14. These fusion proteins were expressed and screened as described in Example 8 (olivetolic acid feed)
(§2) Overnight YPD (10 g/L yeast extract, 20 g/L peptone, 2% dextrose) cultures were inoculated from glycerol stocks of the appropriate strain and grown at 30° C. with 250 rpm shaking. Once cultures had reached an OD600 of 4-6, cultures were centrifuged at 500×g for 5 min, supernatants were discarded, and cell pellets were resuspended in equal volume of water. Resuspended cells were centrifuged at 500×g for 5 min, supernatants were discarded, and cells were resuspended in a volume (75 μL×OD×Vculture) of transformation cocktail (45% PEG-400, 0.1 M LiAc, 0.1 M DTT, and 25 ug/100 μL SS Salmon Sperm DNA). For each transformation, >1 μg of plasmid DNA was added to 55 μL cells/transformation cocktail and vortexed for 2 s. Transformations were incubated at 39° C. for 1 h with 250 rpm shaking. Transformations were resuspended in 750 μL YPD with 1 M sorbitol and recovered at 30° C. overnight with 250 rpm shaking. The next day, transformations were centrifuged at 500×g for 5 min, supernatants were discarded, and cell pellets were resuspended in 750 YPD. Resuspended transformations were plated on YPD with appropriate selection or YNBD (6.71 g/L yeast nitrogen base+nitrogen, 0.5% casamino acids, 2% dextrose) agar plates and grown at 30° C. for 2 days. Individual colonies were patched onto YPD plates with appropriate selection or YNBD plates and grown at 30° C. overnight. Patches were used to inoculate 0.5 mL YPD with appropriate selection or YNBD precultures in 96 w blocks and grown at 30° C. for 24-48 h with 1000 rpm shaking. For assays, 0.5 mL YPD with appropriate selection or YNBD cultures containing substrate were inoculated with 2 μL from precultures and grown at 30° C. for 2-4 days with 1000 rpm shaking with 2% glucose added every 24 h. Assay cultures were quenched by addition of 0.5 mL ethanol with 0.2% formic acid and 0.5 mg/mL pentyl-benzoic acid. Precipitates were pelleted by centrifuging at 4600×g for 10 min and then 200 μL was transferred to fresh plates, sealed, and analyzed via HPLC.
(§3) All samples were quenched with equal volume of EtOH containing 0.2 mg/mL internal standard (3,5-Diisopropyl-2-hydroxybenzoic acid CAS #2215-21-6) centrifuged, and clarified solutions were analyzed by HPLC-MS
(§4) • Column: 2.1×50 mm COSMOCORE PBr (Nacalai USA, Inc.) • Mobile Phase: A; 0.1% formic acid in water, B; 0.1% formic acid in acetonitrile • Flow: 0.45 mL/min • Temp: % 50 Celsius • Gradient: 20%B at 0 min, 70%B at 2.3 min, 89% B at 4.2 min, 20% B at 4.3 min, 20%B at 6 min

In test [2] the test system is olivetolic acid. The experiment in a line: MPT fusions with GPS1.1 vs unfused MPTs, OA feed (Example 8, Table 9). In kind it is cell-based, Yarrowia. The conditions noted are these: 2 mM olivetolic acid, 48 h quench; for CBGA / FCBGA: 2% glucose, strain sCL-SE-0128; for CBGA/FCBGA: product ratio. Here is the method:
as §1, §2, §3, §4

B1: GPS1.1-F18-APT73.77: fusion protein, SEQ ID NO: 65 (protein)
chain: MSKAKFESVFPRISEELVQLLRDEGLPQDAVQWFSDSLQYNCVGGKLNRGLSVVDTYQLLTGKKELDDEEYYRLALLGWLIELLQAFWLVSDDIMDESKTRRGQPCWYLKPKVGMIAIWDAFMLESGIYILLKKHFRQEKYYIDLVELFHDISFKTELGQLVDLLTAPEDEVDLNRFSLDKHSFIVRYKTAYYSFYLPVVLAMYVAGITNPKDLQQAMDVLIPLGEYFQVQDDYLDNFGDPEFIGKIGTDIQDNKCSWLVNKALQKATPEQRQILEDNYGVKDKSKELVIKKLYDDMKIEQDYLDYEEEVVGDIKKKIEQVDESRGFKKEVLNAFLAKIYKRQKGGGGSLEDPAVWEAGKVVAKGVGTADITATTSNGLIASSEEADNAATSMDEVYAAVEQTSRLLDVPCSPDRFEPVWKAFGDQLPDSHLVFSMAAGEAHRGELDFDFSLRPEGADPYTTALEHGFIEPTDHPVGSVLAEVGKRFAIASYGVEYGVVGGFKKSYAFFPLDDFPPLAQFAEVPSVPPCLAGHVETLTRLGFDDKVSIIGVNYRKNTLNVYLAASAVDTGDKLALLRAFGYPEPDARVRQFIERSFRLYPTFNWDSSAAERICFAVHTQQPGELPAPHDEPTEAFARQVPHVYEGGREFVSGVALAPSGASYYKLAALYQKARRCLD
modifications: GPS1.1-F18-APT73.77, geranyl diphosphate synthase, mutant soluble aromatic prenyltransferase fusion protein
With B1, in test [1], the CBGA was 468 ± 24 µM, the FCBGA is 121 ± 2 µM and the CBGA/FCBG amounted to 3.9.

B2: GPS1.1-F11-MPT26: fusion protein, SEQ ID NO: 26 (protein)
chain: MSKAKFESVFPRISEELVQLLRDEGLPQDAVQWFSDSLQYNCVGGKLNRGLSVVDTYQLLTGKKELDDEEYYRLALLGWLIELLQAFWLVSDDIMDESKTRRGQPCWYLKPKVGMIAIWDAFMLESGIYILLKKHFRQEKYYIDLVELFHDISFKTELGQLVDLLTAPEDEVDLNRFSLDKHSFIVRYKTAYYSFYLPVVLAMYVAGITNPKDLQQAMDVLIPLGEYFQVQDDYLDNFGDPEFIGKIGTDIQDNKCSWLVNKALQKATPEQRQILEDNYGVKDKSKELVIKKLYDDMKIEQDYLDYEEEVVGDIKKKIEQVDESRGFKKEVLNAFLAKIYKRQKGGAEAAAKEAAAKAGGSGGGSGGGGSGGSGGGGSGGGGSMSDNSIATKILNFGHTCWKLQRPYVVKGMISIACGLFGKELLHNTNLISWGLMWKAFFALVPILSFNFFAAIMNQIYDVDIDRINKPDLPLVSGEMSIETAWILSIIVALTGLIVTIKLKSAPLFVFIYIFGIFAGFAYSVPPIRWKQNPSTNFLITISSHVGLAFTSYSATTSALGLPFVWRPAFSFIIAFMTVMGMTIAFAKDISDIEGDAKYGVSTVATKLGARNMTFVVSGVLLLNYVAAILAGIIWPQAFNSNVMLLSHAILAFWLILQTRDFALTNYDPEAGRRFFEFIWLLYYAEYFVYVFI
modifications: GPS1.1-F11-MPT26, geranyl diphosphate synthase, recombinant membrane-bound prenyltransferase fusion protein
B2: in test [2], the CBGA amounted to 98 ± 8 µM, the FCBGA came to 21 ± 2 µM and the CBGA/FCBGA was determined as 4.6.

B3: APT73.77-F17-GPS1.1: fusion protein, SEQ ID NO: 64 (protein)
chain: MDEVYAAVEQTSRLLDVPCSPDRFEPVWKAFGDQLPDSHLVFSMAAGEAHRGELDFDFSLRPEGADPYTTALEHGFIEPTDHPVGSVLAEVGKRFAIASYGVEYGVVGGFKKSYAFFPLDDFPPLAQFAEVPSVPPCLAGHVETLTRLGFDDKVSIIGVNYRKNTLNVYLAASAVDTGDKLALLRAFGYPEPDARVRQFIERSFRLYPTFNWDSSAAERICFAVHTQQPGELPAPHDEPTEAFARQVPHVYEGGREFVSGVALAPSGASYYKLAALYQKARRCLDGGGGSMSKAKFESVFPRISEELVQLLRDEGLPQDAVQWFSDSLQYNCVGGKLNRGLSVVDTYQLLTGKKELDDEEYYRLALLGWLIELLQAFWLVSDDIMDESKTRRGQPCWYLKPKVGMIAIWDAFMLESGIYILLKKHFRQEKYYIDLVELFHDISFKTELGQLVDLLTAPEDEVDLNRFSLDKHSFIVRYKTAYYSFYLPVVLAMYVAGITNPKDLQQAMDVLIPLGEYFQVQDDYLDNFGDPEFIGKIGTDIQDNKCSWLVNKALQKATPEQRQILEDNYGVKDKSKELVIKKLYDDMKIEQDYLDYEEEVVGDIKKKIEQVDESRGFKKEVLNAFLAKIYKRQK
modifications: APT73.77-F17-GPS1.1, mutant soluble aromatic prenyltransferase, geranyl diphosphate synthase fusion protein
In the case of B3, in test [1], the CBGA is 242 ± 36 µM, the FCBGA was 73 ± 9 µM and the CBGA/FCBG amounted to 3.3.

B4: GPS1.1-F11-MPT31: fusion protein, SEQ ID NO: 27 (protein)
chain: MSKAKFESVFPRISEELVQLLRDEGLPQDAVQWFSDSLQYNCVGGKLNRGLSVVDTYQLLTGKKELDDEEYYRLALLGWLIELLQAFWLVSDDIMDESKTRRGQPCWYLKPKVGMIAIWDAFMLESGIYILLKKHFRQEKYYIDLVELFHDISFKTELGQLVDLLTAPEDEVDLNRFSLDKHSFIVRYKTAYYSFYLPVVLAMYVAGITNPKDLQQAMDVLIPLGEYFQVQDDYLDNFGDPEFIGKIGTDIQDNKCSWLVNKALQKATPEQRQILEDNYGVKDKSKELVIKKLYDDMKIEQDYLDYEEEVVGDIKKKIEQVDESRGFKKEVLNAFLAKIYKRQKGGAEAAAKEAAAKAGGSGGGSGGGGSGGSGGGGSGGGGSMSDNSIATKILNFGHACWKLQRPYVVKGMISIACGLFGRELLHNTNLISWGLMWKAFFALVPILSFNFFAAIMNQIYDLHIDRINKPDLPLASGEISVNTAWIMSIIVALTGLIVTIKLKSAPLFVFIYIFGIFAGFAYSVPPIRWKQNPSTNFLITISSHVGLAFTSYYASRAALGLPFELRPSFTFLLAFMTVMGMTIAFAKDISDIEGDAKYGVSTVATKLGARNMTFVVSGVLLLNYLVSISIGIIWPQVFKSNIMILSHAILAFWLILQTRDFALTNYDPEAGRRFFEFIWLLYYAEYLVYVFI
modifications: GPS1.1-F11-MPT31, geranyl diphosphate synthase, recombinant membrane-bound prenyltransferase fusion protein
On to B4, for which, in test [2], the CBGA came to 53 ± 4 µM, the FCBGA is 5 ± 0 µM and the CBGA/FCBGA came out at 10.8.

B5: GPS1.1-F16-APT73.77: fusion protein, SEQ ID NO: 63 (protein)
chain: MSKAKFESVFPRISEELVQLLRDEGLPQDAVQWFSDSLQYNCVGGKLNRGLSVVDTYQLLTGKKELDDEEYYRLALLGWLIELLQAFWLVSDDIMDESKTRRGQPCWYLKPKVGMIAIWDAFMLESGIYILLKKHFRQEKYYIDLVELFHDISFKTELGQLVDLLTAPEDEVDLNRFSLDKHSFIVRYKTAYYSFYLPVVLAMYVAGITNPKDLQQAMDVLIPLGEYFQVQDDYLDNFGDPEFIGKIGTDIQDNKCSWLVNKALQKATPEQRQILEDNYGVKDKSKELVIKKLYDDMKIEQDYLDYEEEVVGDIKKKIEQVDESRGFKKEVLNAFLAKIYKRQKGGGSGGGSGGGSGGGGSMDEVYAAVEQTSRLLDVPCSPDRFEPVWKAFGDQLPDSHLVFSMAAGEAHRGELDFDFSLRPEGADPYTTALEHGFIEPTDHPVGSVLAEVGKRFAIASYGVEYGVVGGFKKSYAFFPLDDFPPLAQFAEVPSVPPCLAGHVETLTRLGFDDKVSIIGVNYRKNTLNVYLAASAVDTGDKLALLRAFGYPEPDARVRQFIERSFRLYPTFNWDSSAAERICFAVHTQQPGELPAPHDEPTEAFARQVPHVYEGGREFVSGVALAPSGASYYKLAALYQKARRCLD
modifications: GPS1.1-F16-APT73.77, geranyl diphosphate synthase, mutant soluble aromatic prenyltransferase fusion protein
Regarding B5, in test [1], the CBGA amounted to 421 ± 44 µM, the FCBGA amounted to 113 ± 12 µM and the CBGA/FCBG amounted to 3.7.
